# Assay: yeast display, Sf9 membrane polyspecificity reagent, FACS + sequencing; frameworks hold sequencing errors
# Summary of the method: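 Nanobodies from a synthetic yeast display library (Saccharomyces cerevisiae BJ5465), induced 36–48 hours with galactose, were stained 1 hour at 4 °C with 10% biotinylated, detergent-solubilized Sf9 membrane reagent, enriched on streptavidin microbeads, then FACS-sorted. Anti-HA (expression) and streptavidin (reagent binding) fluorescence set low and high (top ~1%) gates. Polyreactivity labels come from the gate of origin. Genes were colony-PCR amplified, MiSeq 2 × 250 sequenced and filtered by CDR length.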
row,Sequence,polyreactivity (PSR sort gate)
1,QVQLVESGGGLVQAGGSLRLSCAASGSIFKAYAMGWYSQAPGKERELVAAITWSGGSTYYADSVKGRFTISRDNAKYTVYLQMNSLKPEDTAVYYCAADRLEGYYEDDATGFDYWGQGTQVTVSS,low polyreactivity
2,QDQLVESGGGLVQAGGSLRLSCAASGFTFTRNAMGWYRQAPGKEREFVAAISVGGGRTYYADSVKGRFTISRDNAKNTVYLQMNSLKPEDTAVYYCNAYQGWRYDYWGPGTQVTVSS,high polyreactivity
3,QVQLVESGGGLVQAGGSLRLSCAASGRTFQGYAMGWYRQAPGKERELVAAISYRGGSTYYADSVKGRFTISRDHAKPTVFLPMNSLKPEDTAVYYCAARWNRGRYDYWGQGTQVTVSS,high polyreactivity
4,QVQLVESGGGLVQAGGSLRLSCAASGSTFYVNAMGWYRQAPGKERELVASISSSSGSTYYADSVKGRFTISRDNAKNTVYLQMNSLKPEDTAVYYCAAEVGIFIWFDYWGQGTQVTVSS,low polyreactivity
5,QVQLVESGGGKVQAGGSLRLSCAASGFIFRYYAMGWYRQAPGKERELGAAISKRGGSTYYADSVKGRFTISRDNAKNTVYLQMNSLKADDTAVYYCARGYPIDPSFDTYDYWGQGTQVTVSS,high polyreactivity
6,QVQLVESGGGLVQAGGSLRLSCAASGSTFNANTMGWYRQAPGKEREFVAAISWTGASTYYADSVKGRFTISRDNAKNTVYLHMNSLKPEDTAVDYCNADYTVADGPYRDGYDYWGQGTQVTVSS,low polyreactivity
7,QVQLVESGGGLVQAGGSRRLSCAGSGRIFHYYAMGWYRPAPGTERELVAAISRTGSTYYADSVKGRFTISRDNAINTVYLQMNSLKPEDTAVYYCAADYWPQSNRWVYFRYGYWGQGTQVTVSS,high polyreactivity
8,QVQLVESGGGLVQAGGSLRLSCAASGRIFGPYTMGWYRQAPGKERELVATISYSGSTTYYADSVKGRFTISRDNAKNTVYLQMNSLKPEDTAVYYCNAQYYVFITFDYWGQGTQVTVSS,high polyreactivity
9,QVQLVESGGGLVQAGGSLRLSCAASGRIFSKYAMGWYRQAPGKDRELVAAISWSGGRTYYADSVKGRFTISRDNAKNTVYLQMNSLKPEDAALYYCAASFYTGYDYWGQGTQVTVSS,high polyreactivity
10,QVQLVESGGGRVHAGGSHRISCAASGSIFGRYAMGGYRQAPRQDREVVAAISSRGGSTYYADTVKGRFTISRDNAKNTVYLQMTSLKPEDTAFYYCAKENWCTSYYARYDDWGQGTQVTVSS,high polyreactivity
11,QVQHVESGGGLVQAGGSLRLSCAASGGTFVWYAMGWYRQAPGKERELVAAISSSGGRTYYADSVKGRFTISRDNAKNTVYLQMNSLKPEDTAVYYCNAAPYYVLYLLWSSNTYDYWGQGTQVTVSS,high polyreactivity
12,QVQLVESGGGLVQAGGSLRLSCAASGRTFRGYAMGWYRQAPGKERELVAAITRSGGSTYADSVKGRFTISRDNAKNTFYLQMNSLKPEDTAVYYCAADRGYKYYYWGQGTQVTVSS,high polyreactivity
13,QVQLVESGGGLVQAGGSLRLSCAASGLTFYAYAMGWYRQAPGKERELVAAIRWSGGRTYYADSVKGRFTISRDTEKNTVYLQMNSLKPEDTAVYYCAAELSWRLYDYEYWGQGTQVTVSS,low polyreactivity
14,QVQLVESGGGLVQAGGSLRLSCAASGRISRLYAMGWYRQAPGKERELVAAITDSGGSTYYADSVKGRFTISRDNAKNTVYLHMNSLKPEDTAVYDCAATWSNWYREYYYWGQGTQVTVSS,high polyreactivity
15,QVQLVESGGGLVQAGGSLRLSCAASGFTFPYYAMGLYRQAPGKERELVATISSGSSTNYADSVKGRFTISRDNAKNTVYLQMNSLKPEDTAVYYCAAVRSGYSGTDGQYSKYGYWGQGTQVTVSS,high polyreactivity
16,QVQLVESGGGLVPAGGSLRLSCAASGLTFGRYAMRSYRQAPGKEREMVARISRSGGRTYYADSVKGRFTISRDNAKNTVYLQMNSLKPEDTAVYYCAATGSYYGGDHDYWGQGTQVTVSS,high polyreactivity
17,QVQLVESGGGLVQAGGSLRLSCAASGFIGWYAMGWYRQAPGNEREFVAAISASGGSTYYADSVKGRFTISRDNAKNTVYLQMNSLKPEETAVYYCAAYYRAYNPRRFYYWGQGTQVTVSS,high polyreactivity
18,QVQHVESGGGLVQPGGSLRLSCAASGYTFYANAMGWYRQAPGKEREFVASITWSGGSSYYADSVKGRFTISRDNAKNTVYLHLNSLKPEDTAVYYCAAESWFKYDYWGQGTQVTLSS,low polyreactivity
19,QVQLVESGGGLVQAGGILSLSCAASGRIFVYYMGWYRQAPGKESELVAAISFGGGSTYYADSVKGRFTISRDNAKNTVYLQMNSLKPEDTAVYYCNADGDDLDWNYYLVQYDSWGQGTQVTVSS,low polyreactivity
20,QVQLVESGGGLVQAGGRLRLSCAASGRTFGSYAMGWYRQAPGKERELVAAISWSDGSTYYADSVKGRFTISRDNAKNTVYLQMNSLKPEDTAVYYCHWAKWYRYGGYRSRFDYWGQGTQVTVSS,low polyreactivity
21,QVQLVESGGGLVQAGGSLRLSCAASGSIFAYNAMGWYRQAPGKERELVASISTGDSTNYADSVKGRFTISRENAKNTDYLQMNSMKPEDTAVYYCNADSYPYYVYGSNVYWGQGSQVTVSS,low polyreactivity
22,QDQLVESGGGLVQAGCSLRFTCAACGRIFHYYAMGWYRQAPGKERELVAAITSSRGSTYYADSVKGRFTISRDNAKKTGYVQMNSLQPEDTAVYYCAAGLIVGRFVRYDYWGQGTHVTVSS,high polyreactivity

row,Sequence,polyreactivity (PSR sort gate)
1,QVQLVESGGGLVQAGGSLRLTCAASVSTFSRYAMGWYRQAPGKERELVAAISWRGGRTYYADSVKGRFTISRDNAKNTVYLQMNSLKPEDTAVYYCNAVSSFTSPRYDYWGQGTQVTVSS,high polyreactivity
2,QVQLVESGGGLVQAGGSLRLSCAASGIIFSNYAMGWYRQAPGKERELVAAITRSGGRTYYADSVKGRFTISRDNAKNTVYLQMNSLKPEDTAVYYCAATGRSGVLSSYYYWGQGTQVTVSS,high polyreactivity
3,QVQLVESGGGLVQAGGSLRLSCAASGSSFRAYAMGWYRQAPGKERELVAVITYSGDRTYYADSVKGRFTISRDNAKNTVYLQMNSLKPEDTAVYYCAADLQYWHSYSYDDYYYWGQGTQVTVSS,low polyreactivity
4,QVQLVESGGGLVQAGGSLRLSCAASGGIFRGYAMGWYRQAPGKERELVAAITKRGGRTYYADSVKGRFTISRDNAKNTVYLQMNSLKPEDTAVYYCAADYYAAYHLPDQDYDYWGQGTQVTVSS,high polyreactivity
5,QVQLVESGGGLVQAGGSLRLSCAASGGTFYHYAMGLYRQAPGKERALGAAIRSGARTNYADSVKGRFTISRDNAKNTVYLQMNSLYPEDTAAYSCAAARVRGYVRSGLDYWGQGTQVTVSS,high polyreactivity
6,QVQLVESGGGLVQAGGSLRLSCAAYGSIFHVYAMGWYRQAPGKERELVAAIDRSGGSTYYADSVKGRFTISRDNAKNTVYLQMNSLKPEDTSVYYCAKDVLGGQITDGVGNDYWGQGTQVTLSS,low polyreactivity
7,QVQLVESGGGLVQAGGSLRLSCAASGRISYANSMGWYRQAPGKESELVASITYSAGSTYADSVKGRFTISRDNAKNTVYLQMNSLKPEDTAVYYCAKRPSQHYRSYLMDYWGQGTQVTVSS,low polyreactivity
8,QVQLVESGGGLVQAGGSLRLSCAASGRIFRFYVMGWYRQAPGKERELVAAISDSSPSTYYADSVKGRFTISRDNAKKTVYLQMNSLKPEDTAVYYCAARYPPYWSYDYDYWGQGTQVTVSS,low polyreactivity
9,QVQLVESGGGLVQAGGSLRLSCAASGRIFGYTMGWYRQAPGKERELVAAISKSGGSTYYADSVKGRFTISRDNAMNTVYLQMNSLKPEDTAVYYCNKPQRILYDYWGQGTQVTVSS,high polyreactivity
10,QVQLVESGGGLVQAGGSLRLSCAASGLTFGYYSMGWYREAPGKERELVAAITYSGGSTYYADSVKGRFTISRDNAKNTVYLQMNSLKPEDTAVYYCAAEGPVYTTYEYWGQGTQVTVSS,low polyreactivity
11,QVQLVESGGGLVQAGGSLRLSCAASGRTFDGNAMGWYRQAPGKEGEFVATISTDGGSTHYADSVKGRFTISRDNAKNTVYLQMNSLKPEDTAVYYCAADTPWYDDNYDYWGQGTQVTVSS,low polyreactivity
12,QVQLVESGGGLVQAGGSLRLSCAASGSILWENAMGWYRQAPGKERELVATISVSGGGTYYADSVKGRFTISRDNAKNTVYLQMNSLKPEDTAVYYCNARYGNESQGWEDYWGQGTQVTVSS,low polyreactivity
13,QVQLQESGGGLVQAGGSLRLSCAASGTIFCLWAMGWYCQAPGKERELVASISSGGTTYHADSVKGRFTISRDNAKNTVYLQMNSLKPEDTAVYYSAAFYVATAKLGYWGQGSQVTVSS,low polyreactivity
14,QVQLQVSGGGLVNAGGSLRLSCAASGNISPRDAMGWYLQAPGEERDLVASNAYSAITYYADGVTGRSTISRDNAKNTEYLQMNSLKPEDTEVYYCAVYQFTYPVFPAYWGQGTQVTVSS,low polyreactivity
15,QDQLVETGGGLVQAGGCLRLSCAASGRNFFGYAMGWYRQAPGTERELLAAITQSGGRTYYADSVKGRFTISRDNAKNTVYLLMNSQKPEDTAVYYCAATWLGTRNLVHITLYYWGQGTQVTVSS,low polyreactivity
16,QVQLVESGGGLVQAGGSLRLSCAASGSIRRYAMGWYRQAPGKERELVAAISGSGVSTYYADSVKGRFTISRDNAKNTVYLQMNSLKPEDTAVYYCAAAAIYFRYDYWGQGTQVTVSS,high polyreactivity
17,QVQLVESGGGLVQAGGSLRISSAASGRTFFTNAKGWYRQAPGKERELVAVITYRGDSTYADSVKGRFTISRDNAKNTVYLQMNSLKPEDTAVYYCNAEFRGGRWFTYDYWGHGTQVTVSS,low polyreactivity
18,QVQLVESGGGLVQAGGSLRLSCAASGRIFHYYAMGWYRQAPGKERELVAAISWSGGSTYYADSVKGRFTISRDNAKNTVYLQMNSLKPEETAVYYCAARYVKTKGSFVVGYGYWGQGTQVTLSS,high polyreactivity
19,QVQLVESGGGLVQAGGSLRLSCAASGFTFRGYDMGWYRQAPGKERELVAAISGGVSTNYADSVKGRFTISRDNAKNTVYLQMNSLKPEDTAVYYCAAVPVSAGYSSIFDYWGQGTQVTVSS,low polyreactivity
20,QVQLVESGGGLVQAGGSLRLSCAASGRTFGKYARGWYRQAPGKERELVASITFSSGSTYYADSVKGRFTISRDNAKNTVYLQMNSLKPEDTAVYYCAKRGWGIYDYWGQGTQVTVSS,low polyreactivity
21,QVQLVESGGGLVQAGGSLRLSCAASGFIFNNYAMGWSRQAPGKERELVAAITWSGGGTYYADSVKGRFTISRDNAKNTVYLQMNSLKPEDSAVYYCAVYYPAYLEEYWGQGTQVTVSS,high polyreactivity
